{"source": "paper PMC11847541", "about": "“Liver fatty acid binding protein FABP1 transfers substrates to cytochrome P450 4A11 for catalysis” (The Journal of Biological Chemistry, 2025)", "key": {"FABP1": {"biological_target": "T1, FABP1 (Homo sapiens, UniProt P07148)", "T1 construct": "GST (N, cleaved yes); made in house; host or cells: Escherichia coli DH5α", "T1 sequence (P07148 with tags, fused parts or gaps)": "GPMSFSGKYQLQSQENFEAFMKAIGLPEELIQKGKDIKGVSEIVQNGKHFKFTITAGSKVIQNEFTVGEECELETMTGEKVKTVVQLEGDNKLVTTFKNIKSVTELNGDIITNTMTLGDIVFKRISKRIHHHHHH", "details": "human FABP1, fluorescence displacement assay; read-out: Kd; cited from earlier work"}, "P450 4A11 [1]": {"biological_target": "T2, P450 4A11 (Homo sapiens, UniProt Q02928)", "T2 construct": "made in house; host or cells: E. coli", "T2 sequence (Q02928 5-519)": "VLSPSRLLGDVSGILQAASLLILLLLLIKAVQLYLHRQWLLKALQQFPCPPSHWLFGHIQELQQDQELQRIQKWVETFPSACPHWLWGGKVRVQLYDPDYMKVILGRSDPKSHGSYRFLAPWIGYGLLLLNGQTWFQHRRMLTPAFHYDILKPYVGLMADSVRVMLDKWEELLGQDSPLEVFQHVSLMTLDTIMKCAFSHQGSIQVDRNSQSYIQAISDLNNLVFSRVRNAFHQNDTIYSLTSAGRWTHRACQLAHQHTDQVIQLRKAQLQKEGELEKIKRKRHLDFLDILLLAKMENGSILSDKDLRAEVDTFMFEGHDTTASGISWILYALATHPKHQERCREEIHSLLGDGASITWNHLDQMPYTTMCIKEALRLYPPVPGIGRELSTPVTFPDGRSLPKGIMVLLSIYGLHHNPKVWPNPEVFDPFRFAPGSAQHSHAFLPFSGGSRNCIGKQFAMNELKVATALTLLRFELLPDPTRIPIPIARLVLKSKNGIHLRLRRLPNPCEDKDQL", "T2 sequence (P07148 with tags, fused parts or gaps partner)": "T1 sequence (P07148 with tags, fused parts or gaps)", "assay": "Fluorescence titration of Alexa-FABP1 with P450 4A11", "format": "binding", "details": "10 mM potassium phosphate pH 7.4, quadratic fit", "protocol": "The Alexa-FABP1 construct was tested for P450 binding in a fluorescence titration with P450 4A11.\nFigure 10 Binding of Alexa-FABP1 to P450 4A11.A, equilibrium binding titration of Alexa-FABP1 (25 nM) with P450 4A11 as the titrant (0–50 nM). Titrations were performed in 10 mM (closed circles) or 100 mM (open circles) potassium phosphate buffer (pH 7.4). A control reaction was performed with P450 101A1 (P450cam) in 100 mM KPhos (open squares). The change in fluorescence upon protein–protein binding was normalized to the corresponding change in a buffer control. […] Each data point corresponds to one independent replicate, ≥3 biological replicates were collected to confirm the effect. B, kinetics of binding of Alexa-FABP1 (0.125 μM) and P450 4A11 (0.125 μM). Six traces were averaged, and the data were fit to a single exponential curve (in red). The extracted binding rate was 2.0 ± 0.2 s^−1. FABP1, fatty acid binding protein.\nAlexa-FABP1 (25 nM [estimated by an asborbance at 280 nm prior to conjugation reaction, accounting for dilution, and assuming no protein loss during the reaction]) was prepared in potassium phosphate buffer (10 mM or 100 mM, pH 7.4) in a 1 ml glass cuvette. A buffer baseline was recorded using an OLIS DM-45 spectrofluorometer (1.24 mm slit width) with excitation wavelength of 470 nm and scanning emission spectra from 500 to 600 nm. P450 4A11 (stored in 100 mM potassium phosphate buffer [pH 7.4] containing 20% glycerol) was titrated (0–50 nM) into the Alexa-FABP1 solution. The same experiment was repeated but with the P450 4A11 buffer used as the titrant to normalize the data for any solvent effect. […] As stimulation was observed by the P450 interaction, the value of one was subtracted from the normalized fluorescence values so that the curve would have an (x, y) intercept of (0, 0). Kd values were calculated fitting plots of the normalized fluorescence at emission maximum versus concentration of P450 4A11 using a quadratic equation in GraphPad Prism software."}, "P450 4A11 [2]": {"biological_target": "T2, P450 4A11", "assay": "Alexa-FABP1 and P450 4A11 association kinetics (stopped-flow fluorescence)", "format": "binding", "protocol": "We then investigated whether the rate of protein–protein association could be estimated using our fluorescent construct. A solution of Alexa-FABP1 (125 nM final concentration) was rapidly mixed with P450 4A11 (125 Nm final concentration), and Alexa-488 fluorescence was monitored over time. The data were fit to a single exponential equation and yielded an association rate of 2.0 ± 0.2 s^−1 (Fig. 10B).\nTo estimate a rate of interaction for FABP1 and P450, we loaded the protein–protein binding data (Fig. 10B) and fit the data to a simple model, E+F↔EF , as described in the Experimental procedures section. The software fit a kon rate of 2.0 × 10^7 M^−1 s^−1, close to that estimated by using the extracted binding rate ∼2 s^−1 at the concentration (0.125 μM) of either reaction component (i.e., 2 s^−1/0.125 μM = 16 μM^−1 s^−1 = 1.6 × 10^7 M^−1 s^−1).\nMixing solutions (2 ml) of (A) Alexa-FABP1 (0.25 μM [estimated by A280 prior to conjugation reaction, accounting for dilution, and assuming no protein loss during the reaction as described earlier]) and (B) P450 4A11 (0.25 μM) were prepared in potassium phosphate buffer (100 mM, pH 7.4) and loaded into the stopped-flow spectrofluorometer described earlier. The instrument (1.24 mm slit width) was set with an excitation wavelength of 470 nm and Oriel end-on filter for emission >495 nm. The fluorescence maximum of Alexa-FABP1 is 510 nm as described earlier, and stimulation is observed upon protein–protein binding (see “Titrations of Alexa-FABP1 with P450 4A11”). At least six replicate measurements were recorded, the spectra were processed such that the fluorescence gain (from DAUDA binding) began at an (x, y) intercept of (0, 0), and the spectra were averaged. A smoothing factor of 0.4 was applied to the data (in Microsoft Excel), and the resulting curve was fit to a single exponential plot in GraphPad Prism, and the rate of association was extracted. The data were loaded into KinTek Explorer and fit to a minimal kinetic model of protein–protein association (i.e., E+F↔EF ), and a second-order rate constant for the association was extracted."}}, "data": [{"molecule": "CCCCCCCCCCCCCCCC(=O)O", "note": "[Palmitate (C16), palmitate]", "values": [{"measurement": "Kd", "setting": "FABP1", "value": "38 ± 1", "unit": "nM"}]}, {"molecule": "FABP1: delipidated recombinant liver fatty acid binding protein with C-terminal hexahistidine tag", "values": [{"measurement": "Kd", "setting": "P450 4A11 [1]", "value": "~3", "unit": "nM"}, {"measurement": "rate of protein–protein association", "setting": "P450 4A11 [2]; Alexa-FABP1 0.125 μM, P450 4A11 0.125 μM, single exponential", "value": "~2", "unit": "s⁻¹"}, {"measurement": "kon of FABP1–P450 4A11 association (k6)", "setting": "P450 4A11 [2]; KinTek fit to E+F↔EF", "value": "2.0 × 10^7 (k6) M^−1 s^−1"}, {"measurement": "kon of FABP1–P450 4A11 association", "setting": "P450 4A11 [2]; binding rate ∼2 s^−1 divided by 0.125 μM", "value": "1.6e+07", "unit": "M⁻¹ s⁻¹"}, {"measurement": "koff of FABP1–P450 4A11 (k-6)", "setting": "P450 4A11 [2]; calculated from kon and Kd", "value": "2.4 (k-6) s^−1"}]}]}
